Consider 5 substances from paper PMC5348903.

For experiment [1], the target named is short isoform of BST2, Q10589-2. Briefly: co-immunoprecipitation (Western blot densitometry). The following applies: HEK293T cells co-transfected with proviral construct and expressor of the short isoform of BST2; parent: 100. Background: Immunoblotting shows a protein as a band on a membrane.
The target in experiment [2] is BST2 (WT BST2 expressor) (UniProt Q10589). Nature of the experiment: co-immunoprecipitation (anti-BST2 Ab pull-down, Western blot densitometry). The following applies: HEK293T cells co-transfected with proviral construct and BST2 expressor; parent: 100.

Sequence of short isoform of BST2, Q10589-2 (Q10589 13-161): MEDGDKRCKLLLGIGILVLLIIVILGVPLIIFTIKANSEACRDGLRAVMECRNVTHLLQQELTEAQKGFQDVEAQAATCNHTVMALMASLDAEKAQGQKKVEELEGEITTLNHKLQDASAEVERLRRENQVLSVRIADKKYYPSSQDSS

Regarding “HIV-1 NL4-3 Vpu, wildtype A10L; A14L; A18L”, the percent of parent (% BST2 binding (relative to WT)) in experiment [1] was determined as 12; in experiment [2] it was 14.
In the case of HIV-1 NL4-3 Vpu, wildtype E28A; L33A, the percent of parent (% BST2 binding (relative to WT)) was 18 in experiment [1] and 24 in experiment [2].
As to “HIV-1 NL4-3 Vpu, wildtype E28A; L33A; E59K; L63F”, the results for the percent of parent (% BST2 binding (relative to WT)) in experiment [1] and in experiment [2] were 31 and 43, respectively.
As to HIV-1 NL4-3 Vpu, wildtype E59K; L63F, the values for the percent of parent (% BST2 binding (relative to WT)) in experiment [1] and in experiment [2] were 144 and 139, respectively.
Turning to HIV-1 NL4-3 Vpu, wildtype S52D; S56D, the percent of parent (% BST2 binding (relative to WT)) came out at 111 in experiment [1] and 130 in experiment [2].
